# Measurements from US20220025003A1, “REAGENTS AND METHODS FOR CONTROLLING PROTEIN FUNCTION AND INTERACTION” (University of Washington, priority 2018, published 2022).
# Ends that are not written are not given here.
# B1: NLS-PCP-DNCR2 (from NLS-PCP-DNCR2-P2a-BFP) (designed binder)
# chain: MPKKKRKVGSMSKTIVLSVGEATRTLTEIQSTADRQIFEEKVGPLVGRLRLTASLRQNGAKTAYRVNLKLDQADVVDSGLPKVRYTQVWSHDVTIVANSTEASRKSLYDLTKSLVATSQVEDLVVNLVPLGRGSGSGSSDEEEARELIERAKEAAERAQEAAERTGDPRVRELARELKRLAQEAAEEVKRDPSSSDVNEALKLIVEAIEAAVDALEAAERTGDPEVRELARELVRLAVEAAEEVQRNPSSSDVNEALHSIVYAIEAAIFALEAAERTGDPEVRELARELVRLAVEAAEEVQRNPSSRNVEHALMRIVLAIYLAEENLREAEESGDPEKREKARERVREAVERAEEVQRDPSGWLNHEQKLISEEDLGSGATNFSLLKQAGDVEENPG
# B2: FAM-ANR (peptide)
# chain: GSGSGELDELVYLLDGPGYDPIHSD
# modifications: not fully specified (N-terminus)
# B3: NLS-MCP-GNCR1 (from NLS-MCP-GNCR1-P2a-BFP) (designed binder)
# chain: MPKKKRKVGSMASNFTQFVLVDNGGTGDVTVAPSNFANGIAEWISSNSRSQAYKVTCSVRQSSAQNRKYTIKVEVPKGAWRSYLNMELTIPIFATNSDCELIVKAMQGLLKDGNPIPSAIAANSGIYGSGGSGDIEKLCKKAEEEAKEAQEKADELRQRHPDSQAAEDAEDLANLAVAAVLTACLLAQEHPNADIAKLCIKAASEAAEAASKAAELAQRHPDSQAARDAIKLASQAARAVILAIMLAAENPNADIAKLCIKAASEAAEAASKAAELAQRHPDSQAARDAIKLASQAAEAVERAIWLAAENPNADIAKKCIKAASEAAEEASKAAEEAQRHPDSQKARDEIKEASQKAEEVKERCKSEQKLISEEDLGSGATNFSLLKQAGDVEENPG
# Legend:
# [1] = biological target: NS3aH1-VPR, cells treated with danoprevir (hepatitis C virus); assay: cell-based or functional assay
# [2] = biological target: NS3a (active), Avi-His6-NS3a catalytically active; assay: fluorescence polarization; FB50; settings: chains peptide; modification not given
# [3] = biological target: NS3a (active), Avi-His6-NS3a catalytically active; assay: fluorescence polarization; FB50; settings: chains peptide; modification not given; remark: listed apart in the source
# [4] = biological target: NS3aH1-VPR, cells treated with grazoprevir (hepatitis C virus); assay: cell-based or functional assay
binder,measurement,setting,value
B1,"EC50 of the danoprevir titration, GFP fluorescence",[1],0.79 nM
B2,EC50,[2],40 nM
same,EC50,[3],30 nM
B3,"EC50 of the grazoprevir titration, CXCR4 immunofluorescence",[4],0.16 nM
